Laboratory results as given in patent publication US20260242478A1 (published 2026).

B1: Phage-642 (peptide)
peptide: YCDGHSAEYMMKCL
notes: Clonal phage displaying the peptide; not shown: fused to pIII of the bacteriophage
B2: Phage-658 (peptide, not shown: large carriers)
peptide: YCEGHTAEYLQKCL
notes: Clonal phage supernatant of the Peptide-87 library
B3: Phage-640 (peptide)
peptide: YCEGHLPQYLAKCL
notes: as for B1
B4: Phage-643 (peptide)
peptide: YCEGHLPQYIPKCL
notes: as for B1
B5: Phage-635 (peptide)
peptide: YCDGHSDEYMAKCL
notes: as for B1
B6: Phage-632 (peptide)
peptide: YCAGHLPEYMQKCL
notes: as for B1
B7: Phage-661 (peptide, not shown: large carriers)
peptide: YCAGHLEIYMQKCL
notes: as for B2
B8: Phage-633 (peptide)
peptide: YCDGHLGIYMWKCL
notes: as for B1
B9: Phage-659 (peptide, not shown: large carriers)
peptide: YCAGHSPEYMGKCM
notes: as for B2
B10: Phage-660 (peptide, not shown: large carriers)
peptide: YCSGHLPEYMEKCL
notes: as for B2
B11: Phage-639 (peptide)
peptide: YCDGHIPIYMSKCL
notes: as for B1
B12: Phage-641 (peptide)
peptide: YCAGHLPLYMEKCL
notes: as for B1
B13: Phage-657 (peptide, not shown: large carriers)
peptide: YCAGHLPEHIGKCL
notes: as for B2
B14: Phage-637 (peptide)
peptide: YCDGHQPEYMAKCL
notes: as for B1
B15: Phage-631 (peptide)
peptide: YCEGHLPEYMSKCL
notes: as for B1
B16: Phage-636 (peptide)
peptide: YCEGHSLEYIGKCL
notes: as for B1
B17: Phage-638 (peptide)
peptide: YCAGHLPEYISKCL
notes: as for B1
B18: Phage-634 (peptide)
peptide: YCEGHSAEYMAKCL
notes: as for B1

Assays:
[1] = molecular target: T1, Anti-CD28 Fab (SEQ ID NOs: 696, 697) (biotinylated (site not stated)); assay: phage binding ELISA; biotinylated anti-CD28 Fab on neutravidin plates, clonal phage supernatant, anti-M13 HRP detection
T1 sequence (VH, as listed by the source, chain 1 of 2): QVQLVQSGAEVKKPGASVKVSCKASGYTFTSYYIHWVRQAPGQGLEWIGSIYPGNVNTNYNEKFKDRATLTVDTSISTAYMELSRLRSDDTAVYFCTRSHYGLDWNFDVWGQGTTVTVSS
T1 sequence (VL, as listed by the source, chain 2 of 2): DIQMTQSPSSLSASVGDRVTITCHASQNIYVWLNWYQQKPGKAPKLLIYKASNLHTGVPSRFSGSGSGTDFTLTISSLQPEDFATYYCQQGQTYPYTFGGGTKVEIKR

[2] = molecular target: T1, Anti-CD28 Fab (SEQ ID NOs: 696, 697); assay: phage binding ELISA; Fab-coated wells pre-incubated with CD28 antigen as competitor, then clonal phage, anti-M13 HRP detection
Experimental: (§1) After panning, phage infected bacteria were plated out and colonies picked into 96 well blocks. Clonal phage was then amplified and separated from bacterial cells via centrifugation.
(§2) Clonal phage were harvested as crude supematants and screened via standard ELISAs. […] Prior to the addition of clonal phage, wells were incubated with blocking buffer and CD28 antigen or blocking buffer alone. Without washing or aspirating, clonal phage supematants were then added to the wells and incubated for a short time. Wells were then washed followed by detection of bound phage using a horse radish conjugated anti-M13 antibody. Clonal phage of interest were then sent for sequence analysis.

[3] = molecular target: anti-CD28 Fab (SEQ ID NOs: 696, 697); assay: phage binding ELISA; Fab on plate pre-incubated with CD28 antigen as competitor, anti-M13 HRP detection;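 further: crude clonal phage supernatants screened by ELISA, with comparison wells pre-incubated in blocking buffer only, lacking CD28 antigen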
Chain of anti-CD28 Fab (SEQ ID NOs: 696, 697) (VH, as listed by the source, chain 1 of 2): as the sequence (VH, as listed by the source, chain 1 of 2) above
Chain of anti-CD28 Fab (SEQ ID NOs: 696, 697) (VL, as listed by the source, chain 2 of 2): as the sequence (VL, as listed by the source, chain 2 of 2) above
Experimental: as §1, §2

[4] = molecular target: anti-CD28 Fab (SEQ ID NOs: 696, 697); assay: phage binding ELISA; biotinylated Fab on neutravidin plate, clonal phage supernatant, anti-M13 HRP detection;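 further: phage from clones picked after panning, added to wells pre-incubated with blocking buffer with or without CD28 antigen, then briefly incubated and washed before detection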
Experimental: as §1, §2

[5] = molecular target: Anti-CD28 Fab (SEQ ID NOs: 696, 697); assay: phage ELISA, biotinylated anti-CD28 Fab on neutravidin plate, anti-M13 HRP detection
Target sequence in this assay (VH, as listed by the source, chain 1 of 2): as the sequence (VH, as listed by the source, chain 1 of 2) above
Target sequence in this assay (VL, as listed by the source, chain 2 of 2): as the sequence (VL, as listed by the source, chain 2 of 2) above
Experimental: as §1, §2

[6] = molecular target: Anti-CD28 Fab (SEQ ID NOs: 696, 697); assay: phage ELISA on captured anti-CD28 Fab, wells pre-incubated with CD28 antigen as competitor;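 further: crude clonal phage supernatants added without washing, bound phage read out by HRP-coupled anti-M13 antibody, reference wells given blocking buffer only instead of CD28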
Target sequence in this assay (VH, as listed by the source, chain 1 of 2): as the sequence (VH, as listed by the source, chain 1 of 2) above
Target sequence in this assay (VL, as listed by the source, chain 2 of 2): as the sequence (VL, as listed by the source, chain 2 of 2) above

[7] = molecular target: T2, Anti-CD28 Fab (SEQ ID NOs: 696, 697); assay: phage binding ELISA on anti-CD28 Fab plate pre-incubated with CD28 antigen as competitor; anti-M13 HRP detection
T2 construct: Biotinylated and captured on neutravidin coated plates in the phage ELISA
T2 sequence (VH, as listed by the source, chain 1 of 2): as the sequence (VH, as listed by the source, chain 1 of 2) above
T2 sequence (VL, as listed by the source, chain 2 of 2): as the sequence (VL, as listed by the source, chain 2 of 2) above
Experimental: as §1, §2

[8] = molecular target: T2, Anti-CD28 Fab (SEQ ID NOs: 696, 697); assay: phage binding ELISA; biotinylated anti-CD28 Fab on neutravidin plate, clonal phage supernatant, anti-M13 HRP detection

| Binder | Anti-CD28 Fab signal (phage binding ELISA) [1] | Anti-CD28 Fab signal in the presence of CD28 (phage binding ELISA) [2] | Anti-CD28 Fab signal (phage binding ELISA) [5] | Anti-CD28 Fab signal in the presence of CD28 (phage binding ELISA) [6] | other results |
| --- | --- | --- | --- | --- | --- |
| YCDGHVPQYMAKCL (tested as crude phage supernatant) [Phage-653] | 2.1 | 0.07 |  |  |  |
| YCAGHTQEYMSKCL (tested as crude phage supernatant) [Phage-651] | 2.1 | 0.05 |  |  |  |
| YCDGHVAEYRDKCL (tested as crude phage supernatant) [Phage-623] |  |  |  |  | Anti-CD28 Fab signal in the presence of CD28 [3]: 0.07; Anti-CD28 Fab (SEQ ID NOs: 696, 697) signal [4]: 2.17 |
| B1 |  |  | 2.12 | 0.08 |  |
| B2 |  |  |  |  | Anti-CD28 Fab signal in the presence of CD28 (phage binding ELISA) [7]: 0.1; Anti-CD28 Fab signal (phage binding ELISA) [8]: 2.09 |
| YCSGHAPIYMAKCL (tested as crude phage supernatant) [Phage-650] | 2.1 | 0.07 |  |  |  |
| YCDGHSAEYMSKCL (tested as crude phage supernatant) [Phage-654] | 2.1 | 0.06 |  |  |  |
| YCEGHLPQYLQKCL (tested as crude phage supernatant) [Phage-626] |  |  |  |  | Anti-CD28 Fab signal in the presence of CD28 [3]: 0.09; Anti-CD28 Fab (SEQ ID NOs: 696, 697) signal [4]: 2.16 |
| YCQGHLPQYIAKCL (tested as crude phage supernatant) [Phage-655] | 2.09 | 0.08 |  |  |  |
| YCDGHSNEYMAKCL (tested as crude phage supernatant) [Phage-625] |  |  |  |  | Anti-CD28 Fab signal in the presence of CD28 [3]: 0.07; Anti-CD28 Fab (SEQ ID NOs: 696, 697) signal [4]: 2.16 |
| YCDGHSLEYMAKCL (tested as crude phage supernatant) [Phage-630] |  |  |  |  | Anti-CD28 Fab signal in the presence of CD28 [3]: 0.06; Anti-CD28 Fab (SEQ ID NOs: 696, 697) signal [4]: 2.15 |
| B3 |  |  | 2.12 | 0.1 |  |
| YCEGHSPQYMQKCL (tested as crude phage supernatant) [Phage-652] | 2.1 | 0.06 |  |  |  |
| B4 |  |  | 2.12 | 0.07 |  |
| B5 |  |  | 2.14 | 0.07 |  |
| B6 |  |  | 2.15 | 0.09 |  |
| YCDGHLPEYMHKCL (tested as crude phage supernatant) [Phage-647] | 2.11 | 0.11 |  |  |  |
| YCAGHLPQYMEKCM (tested as crude phage supernatant) [Phage-656] | 2.09 | 0.08 |  |  |  |
| YCDGHLPEYMWKCI (tested as crude phage supernatant) [Phage-628] |  |  |  |  | Anti-CD28 Fab signal in the presence of CD28 [3]: 0.07; Anti-CD28 Fab (SEQ ID NOs: 696, 697) signal [4]: 2.15 |
| YCAGHAPEYIQKCL (tested as crude phage supernatant) [Phage-622] |  |  |  |  | Anti-CD28 Fab signal in the presence of CD28 [3]: 0.09; Anti-CD28 Fab (SEQ ID NOs: 696, 697) signal [4]: 2.17 |

| Binder | Anti-CD28 Fab signal (phage binding ELISA) [1] | Anti-CD28 Fab signal in the presence of CD28 (phage binding ELISA) [2] | Anti-CD28 Fab signal (phage binding ELISA) [5] | Anti-CD28 Fab signal in the presence of CD28 (phage binding ELISA) [6] | other results |
| --- | --- | --- | --- | --- | --- |
| YCAGHAPEYMQKCL (tested as crude phage supernatant) [Phage-624] |  |  |  |  | Anti-CD28 Fab signal in the presence of CD28 [3]: 0.07; Anti-CD28 Fab (SEQ ID NOs: 696, 697) signal [4]: 2.16 |
| YCMGHSEEYMQKCL (tested as crude phage supernatant) [Phage-646] | 2.11 | 0.07 |  |  |  |
| B7 |  |  |  |  | Anti-CD28 Fab signal in the presence of CD28 (phage binding ELISA) [7]: 0.08; Anti-CD28 Fab signal (phage binding ELISA) [8]: 2.09 |
| YCDGHVAEYMAKCL (tested as crude phage supernatant) [Phage-627] |  |  |  |  | Anti-CD28 Fab signal in the presence of CD28 [3]: 0.07; Anti-CD28 Fab (SEQ ID NOs: 696, 697) signal [4]: 2.16 |
| B8 |  |  | 2.14 | 0.08 |  |
| YCDGHMPEYMLKCL (tested as crude phage supernatant) [Phage-649] | 2.11 | 0.09 |  |  |  |
| B9 |  |  |  |  | Anti-CD28 Fab signal in the presence of CD28 (phage binding ELISA) [7]: 0.06; Anti-CD28 Fab signal (phage binding ELISA) [8]: 2.09 |
| B10 |  |  |  |  | Anti-CD28 Fab signal in the presence of CD28 (phage binding ELISA) [7]: 0.09; Anti-CD28 Fab signal (phage binding ELISA) [8]: 2.09 |
| B11 |  |  | 2.13 | 0.08 |  |
| B12 |  |  | 2.12 | 0.06 |  |
| B13 |  |  |  |  | Anti-CD28 Fab signal in the presence of CD28 (phage binding ELISA) [7]: 0.07; Anti-CD28 Fab signal (phage binding ELISA) [8]: 2.09 |
| YCDGHLEEYMAKCL (tested as crude phage supernatant) [Phage-648] | 2.11 | 0.09 |  |  |  |
| B14 |  |  | 2.14 | 0.07 |  |
| YCDGHLPVYMAKCL (tested as crude phage supernatant) [Phage-645] | 2.11 | 0.09 |  |  |  |
| B15 |  |  | 2.15 | 0.07 |  |
| B16 |  |  | 2.14 | 0.06 |  |
| YCDGHAPQYMLKCL (tested as crude phage supernatant) [Phage-644] | 2.12 | 0.09 |  |  |  |
| YCDGHSAEYMWKCL (tested as crude phage supernatant) [Phage-629] |  |  |  |  | Anti-CD28 Fab signal in the presence of CD28 [3]: 0.08; Anti-CD28 Fab (SEQ ID NOs: 696, 697) signal [4]: 2.15 |
| B17 |  |  | 2.14 | 0.08 |  |
| B18 |  |  | 2.14 | 0.06 |  |
